Assays:
[1] = target: AaLS-13 (Aquifex aeolicus); experiment: SEC; Ni-NTA eluate of the co-expressed proteins on Superose 6; 50 mM sodium phosphate pH 7.0, 150 mM NaCl, 1 mM EDTA, 1 mM TCEP; fractions by SDS-PAGE; repeated in buffer at pH 7.0 and 7.4
[2] = target: the molecule itself; experiment: negative stain transmission electron microscopy; purified protein samples (0.05-0.15 mg/mL) on carbon-covered copper grids, uranyl acetate stain, 200 kV

| ratio of cpAaLS-OaAEP1-C247A to AaLS-13 in the cage (estimated from SDS-PAGE band intensity) (AaLS-13 per cpAaLS-OaAEP1-C247A) [1] | Molecule | binding result [2] |
| --- | --- | --- |
| 3.3 | cpAaLS-OaAEP1-C247A | – |
| – | AaLS-13 (other, Aquifex aeolicus, negatively supercharged engineered variant of lumazine synthase from Aquifex aeolicus (AaLS); Self-assembles into a protein cage; also called His6-tagged AaLS-13; AsLS-13; source: E. coli SHuffle T7 Express, co-expressed with cpAaLS-OaAEP1-C247A (IPTG induction); in lysate, then purified (Ni-NTA IMAC, SEC)) MEIYEGKLTAEGLRFGIVASRFNHALVGRLVEGAIDCIVRHGGREEDITLVCVPGSWEIPVAAGELARKEDIDAVIAIGVLIEGAEPHFDYIASEVSKGLANLSLELRKPISFGDITDDELEEAIECAGTEHGNKGWEAALSAIEMANLFKSLR | binds |
